Measured values published in patent US20220105163A1.

Molecular target: Recombinant human IL-6 (human) (UniProt P05231)
Experiment: cell-based or functional assay

Chain of Recombinant human IL-6 (human) (P05231 30-212 limits assumed): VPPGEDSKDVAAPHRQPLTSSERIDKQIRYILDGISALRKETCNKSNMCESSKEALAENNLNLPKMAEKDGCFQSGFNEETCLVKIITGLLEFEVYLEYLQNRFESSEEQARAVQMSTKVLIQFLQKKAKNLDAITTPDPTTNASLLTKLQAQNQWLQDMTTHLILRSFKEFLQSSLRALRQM

- IC50 (µg/mL), IL-6 induced TF-1 proliferation: 0.629 µg/mL
B1: ALD518 (antibody, INN chains, looked up, V domains shown)
VH: EVQLVESGGGLVQPGGSLRLSCAASGFSLSNYYVTWVRQAPGKGLEWVGIIYGSDETAYATSAIGRFTISRDNSKNTLYLQMNSLRAEDTAVYYCARDDSSDWDAKFNLWGQGTLVTVSS
VL: AIQMTQSPSSLSASVGDRVTITCQASQSINNELSWYQQKPGKAPKLLIYRASTLASGVPSRFSGSGSGTDFTLTISSLQPDDFATYYCQQGYSLRNIDNAFGGGTKVEIK
